According to the DeepSol protein solubility set:

Assay: soluble on expression in E. coli; label from the status in PepcDB or PDB records

**Q.** With “MAHHHHHHMLSLPRDHHYHAHHSGTEFVPFDQVIGITPDGVPVISNGNEFHFSNLESVTPSYQALCSSVRKAPVIVPCTKLGAKWQCVEFARRYLASRKAVWTASMPIAADMLRAEPPFVHVQDSTPVEFTRTPNRSHGPAPAMSDIIVWDQSEETPLGHVAVVTEVLPEAVRVAEQNQGFERWPQGMLYSREISMQRSSAGTVELVDEDSVLGWVTLQCPYYDFRDGDLADKFRIATGPGCIVRQPFPKHVELPWVQPEERCDFYLKRSLAIGGNVGDDARAEECDVPSAFFFYFLDY” as the sequence, how does the “soluble on expression in E. coli” value read?
**A.** not soluble

**Q.** With “MAHHHHHHMMRLLRNNVKNMFLKNCFLVRNTNVKCWRTDRFHNYNMWNTVENNGIRGFSSSSFEEIKKMNMFTAINSAMHNVFESNPNSVLLGEDVAFGGVFRCSLDLLKKYGNMRVFNTPLCEQGIIGFAIGLAENGFTTIAEIQFGDYIFPAFDQIVNDVAKYRYRSGSSFDVGKLTIRSTWGAVGHGGLYHSQSPEAFFAHAAGIKIIVPSDAYKAKGLLLSAINDPNPCLFFEPKILYRSSVCDVPTGPYQLELGKADVVRQGSDVTIVTWGSLVHKMKNAAEILSKKHNIECEVIDLQSIIPWDIETVQKSVEKTGRLLITHEAQLTNGFGAEIAAKIQERCFYNLHTPIKRVCGYDTPFPHVYEPFYMPDAHKVIYEVKKMMK” as the sequence, how does the “soluble on expression in E. coli” value read?
**A.** not soluble

**Q.** Which “soluble on expression in E. coli” value does the source give for “MAHHHHHHMMSTASKILAILREAMRKRSLSALIIPSSDPHNSEYVKDEYKCRAYITNFKGSAGTCLITMNEAYLWTDGRYWLEASQSLYPEWTLMKDGHPDVPRLENWIQLNLGSDVLVGMNNHLSTVAEWERRRKMFNLVSVPEMVQPLMPLVENPVSKLYARPEEFCGMRCGEKAAALMEEMERQKCDALVLSALDEVAWLTNLRGSDVPFNPVFYAYGVVRCCSPPKVHLFVDAVMSEEQGPSLELHPYTALESYLRTIPAGTTFLVDEYQTSQWLFTLLESLGMRIKGVACGPAQKLKAVKNAVEIEGFRRCHVRDGVALTRYLAWLHDTVAVKGDTSVTEYSAAQRLEDFRREGEHFVQLSFSTISSVGPNAAIVHYVAPREGSATIVPDQLYLVDSGAQYLDGTTDVTRTVCFREPGDKEREAYTLVLKGNLALHSAVWPTGTSGHSLDVLARAALWKCGLNYAHGTGHGVGSFLNVHEGPQGIGLRPTPTEATLAAGMVMSNEPGYYKDGEFGIRIENLELVVDVATKHSKKGFLTFDTLTMVPLCRELIDVSALTEAERLQVNAYQQTVRETLLPHLRRCNDSCAIAYLEHHTATL” here?
**A.** soluble

**Q.** With “MAHHHHHHMMYSKNDEFNVKKEMDMNLKCDNVNLDIWNTSFLNNETLNEDIFIHIGNKLLKMYYTTNHNIPSETLYSLLYEMKNGYNNVPYHNSIHAAMVTHHCNVLVSNLNTANILRDNELGALFVASLGHDIGHFGRTNIFLKNCCNFLSIIYNDKSILENYHCSYLFNILLKDENNIFKNEDPKCLLALRQQIIELILATDMSKHIKILAQFRIKSIKIKSYIEKNIILCLKMIIKAADLSHNCVDWSEHYQWVKRLVNEFYYEGDELFQMGYKINPLFDRNCHNNFIQIQRTFLKELVYPLIISLKTLDNTSITQDMINNVKRNYSKWTKI” as the sequence, how does the “soluble on expression in E. coli” value read?
**A.** soluble

**Q.** With “MAHHHHHHMNDETKVFNKCFKKISNCYTLNKKGEKENSTGNQFVLHNCIQTLLSDPIVVLYTDNNYICTGSLTGKVCLYKITIKENKETNTNISYVYNNNNNITDDEKKCINDLNNREELKKENYSKSTIDDVVISKKELNNHNNINNNNNNNNNNNNNSEIIKKYHILCMFRNNSIKSIYIDKNNIYICYESCIDVFCVRSYQFIQKINLDVTNNKQVIYYENYILFNNSKSLFIYDITSNFSSYFYKNFLKNIVIFDFNINYLLCYKNNFGKCHIRVLQIFADAQKCEHELIFCVDFSSKFISHGKFLDDEKIIVAKNGKRLIIFDFKKAIDMYRIRKLKKKILDIHKSVENMLFILVENQIFIFNLSTFVFYKTVQLPKGLFYFKWSYFIRYKNRKIIFSSDKGVYYIDYSIEENV” as the sequence, how does the “soluble on expression in E. coli” value read?
**A.** soluble

**Q.** Which “soluble on expression in E. coli” value does the source give for “MAHHHHHHMNEDAMKILNKCSGEKKKGEDLNSCNLLEYYKTKYSSIDIEKAKLILKEQFLIPDFREKQLECLNSIKRFEHVLNIMPTGGGKSLIYQVLPLIIEGISIVISPLISLIQDQIISLRNKKIVAETINSSLNKKENERILDILKSQDLGNLKVLYITPETATSGYFIDILYELYINKKISLISIDEVHCISTWGSDFRKSYRNLNKILDICPYVRTYCCTATATKFVEKDIIRNLNFYIFNKDCDNNINNNNINNNNNIHNNNKYDDHNNNCKVLNIVRTSFNRPNLKYIIIYSDLIKDEKKNSVCDIINEKRNKGKIGIIYCFKRNTCDEISKYLREKGIQALSYHAGLTNNTRKRIQQKWISGKTNILVATIAFGMGIDRKDVSFIIHYNLPKSIENYYQESGRCGRSGHISFCYLFYSKEDVEKLSYIIKTSFAHLDMHDVNIEKKYEKEIYNLECVHNLCINEKCIRSQILSYFGETYPNKNLQTNNTSDHNKQTYKNQTHVEKYNFDTANMYHPSDQNKDNLTDEHFCCSFCYDTKGSRIKIQKVINLYENKKGSNISQFYSKGETHEYNYLYTNNGKHKLYDDDTYYSPSGEEPREKRSTNYYNKYGDKYGDKYDDKYDDKYDEKYDDKYGDRKLQEGIYKLNNKKIKGYIPFQSASSIIPKQIRDKGIIEVMKELEKREEELNEKTKNDQEKHKVNKMNLFKSNSMNVKRKHVFSSFKIPRKI” here?
**A.** not soluble

**Q.** For “MAHHHHHHMNGEVSVERKFSPSQPGYGSEGCRQSMGTTTNNGARRFSATELGRTVGMPYSFDTMRYLKDVMRRREDIHTMRVMPKTHLLAQLVLLEQSGREMLIHQERFCRQQIAHKRDDERSKREEQRLQQKNRDRLEEMKRKQVEELAALKEGVTSFQRQIDAEVKEKLRIVCMLQPRMNVAAAVLAEVKNEASPFLLLPELMEEEKRVAKALKADSRYSKSSADSGAVPHWMRTCVAGSFNVAAILQDAPYRATVDDAVKVTNAFLRKVVVVRDVNDRSVVGWVHVRAGSDPATLATELVRLPAPEELPDQGNIGVVWPKEDFLELSRRAKANNNVETQQLLQSVLGISSASLHCVGLTTHEFSKKEVDTIGSLASV”, which “soluble on expression in E. coli” value is on record?
**A.** not soluble

**Q.** Which “soluble on expression in E. coli” value does the source give for “MAHHHHHHMNPQTSLTRKQCDFTKLIMAGYDLELNNGSTQDFDVMFHGPNGTAYEGGIWKVHVTLPDDYPFASPSIGFMNKLLHPNVDEASGSVCLDVINQTWTPLYSLVNVFEVFLPQLLTYPNPSDPLNSDAASLLMKDKNIYEEKVKEYVKLYASKDLWEQQKKEKKPSNINGNISPVSELSYVDQDVQDIDLDNL” here?
**A.** soluble

**Q.** For “MAHHHHHHMNTHVISVGSRWVHHEVTQALRQRRGVRVEVNEELQHCDFASRASSVLYCDAHSAEMQRDQASLVLRLQEARQRCGTQPVILMVRMDSDNEVSLERLSWLNLECGVAQQCGLILVWSLDDAVQYLASLAAYAVTSLEFTGAARPYVGDAPLPVLVDALTQTPQVVTRNDVVRIANRKTSVADALMSEASEWEGIAGLDARKRLVCSTSFAHHLCPRSSASTPLYRPPAAAVSLPLIKPQNLISRSQQESPQRGRQRPLASTRP”, which “soluble on expression in E. coli” value is on record?
**A.** not soluble

**Q.** For “MAHHHHHHMNTLGSSGSAGAEAPLVGGPDALTLQTINEQQLIILRQKELVSTLKECVEELGAQLRRAGVKPLEAAQKEDGCKGTLSYVSEMQLRRRVRTLEDENKKLSDLVDELRAEVSAISAQLCAQQLHTQSEKDVWKAKVSSAEAKSVATAHLLEATGKRNQQLVHHLETLRREGEVSAYECTQWRSLATTAVSHLDHANQRYARAQINSIEEDVHRYAVNRLRLVRVAASASLSLDSGTPEETRKIWSRSAQLPKLHPAPQVFQQQQQEPVCSPLHVSYKRPLSQLLPCQPPQPTTSYSLPPPTAEHVNAETHLSPSHCAALAQT”, which “soluble on expression in E. coli” value is on record?
**A.** not soluble

**Q.** For “MAHHHHHHMPGPGLLPDGWFREESTMWPGQAQGLKVEKVLYDQPTEFQHLTVFESDPSGPWGTVMTLDGAIQLTDYDEFVYHEMLANLSLACHHKPERVLVIGGGDGGVVREVLRHKSEKDGVVQSVELVDIDGAVMQQSKKHFPQVACGFANPCVTATVGDGAAFVRNVPDSVYDVIIIDTTDPKGPASELFGADFYTNVLRILRPGGVVCNQGESVWLHRPLIEKMMGFLKKDIGFATVKYAMIYIPTYPCGSIGTLVCAKSADTDVTVPMRPVESLGFADQLKYYSSDMHKAAFVLPRFAAHLNE”, which “soluble on expression in E. coli” value is on record?
**A.** soluble
